In patent publication US20170258870A1:
Each block holds one binder with its values, some of them ahead of it. The star is where a group is joined. Biotin = O=C1N[C@H]2[C@H](CS[C@H]2CCCCC(=O)*)N1; Ttds = NCCCOCCOCCOCCCNC(=O)CCC(=O)*

Target: recombinant GC (Cerezyme, Genzyme Therapeutics) (UniProt P04062)
Test: cell-based or functional assay

half-life of GC activity at 37° C. (stabilization assay): 24 h
B1: 3xD Helix 5 peptide (peptide)
peptide: {Biotin-Ttds}-LREDDEAMDKAYQQKLFVTHTVDE-OH

GC enzyme activity: 5 times | half-life of GC activity at 37° C. (stabilization assay): 48 h
B2: Helix 5 peptide (LIMP-2-derived, L152-E175) (peptide)
peptide: {Biotin-Ttds}-LREIIEAMLKAYQQKLFVTHTVDE-OH
